± gives the half width of the 95% confidence interval.
Assay: folding stability dG unfold from trypsin proteolysis; higher = more stable
How it was run: (§1)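 Unfolding free energy was derived, per protease or combined, against a sequence-predicted unfolded-state K50 and a shared folded-state K50, starting from K50 inferred by Bayesian fitting of sequencing counts. Digestion with trypsin and chymotrypsin was carried out on designed mini-proteins under 80 residues without cysteine in a PA-tagged cDNA display construct. Only designs with AlphaFold2 dimer inter-PAE above 15 were kept.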

Row | Sequence | folding stability dG unfold [kcal/mol]
1 | SAGGSAGGSAGGKGKKVTIEIHFFFKSPQEMKHWANTLAKELPGLDVEIKVEWIPLEDMKSAGGSAGGSAGG [r7_465_TrROS] | 2.06 ± 0.14
2 | SAGGSAGGSAKIKIKVKPGEKVRIYNKKTKKEIAEVEVVEVKEGKIVVKLKNGKLYEIEIEPSAGGSAGGSA [r18_363_TrROS_Hall] | 1.67 ± 0.033
3 | SADPVYYKITITLYIKGDSSSTKTFEIVVPAGDVEKAKEEAIKKIKEETGKPILKVETEVTKVPPEELLSAG [r14_104_JUSTAS] | 3.89 ± 0.4
4 | SAGGSAGGSMDGTVRQPPGGVWEVRARPPAVTPVLVTVVLVTVDADGNLILNPVAGYTHPDELSAGGSAGGS [r12_1027_TrMRF] | 0.359 ± 0.032
5 | SAGGELENLTVEELKALLEELFPDVEVKVTVEKLPEGYYRITVEIRVRLPNGETRRFELELVIRLEDSAGGS [r16_564_TrROS_Hall] | 4.03 ± 0.23
6 | SAGGSAGGSAMKTITLKDEKGNPLTAEVEKLPNGTIKITITKPGGEKTTYTIPPGEKITLPVSAGGSAGGSA [r18_115_JUSTAS] | 2.34 ± 0.16
7 | SAGGSAGGSAGGMKKYKITVYDEKTGEKHTIEIEMSEEELEELAKKLAEKHNVKVRIEKVSAGGSAGGSAGG [r7_562_TrROS_Hall] | 2.73 ± 0.095
8 | SAGGSAGGSMIVETEVEEGDGSAVTKTFYPDSVTTTVNTPDEVTVEKTFPDGTVETTTVPLSPSAGGSAGGS [r12_507_JUSTAS] | 0.607 ± 0.028
9 | SAGGSAMPKYVISGIYRLPDKTLFFDYVIPPGLAENPERVKELAEEIRELLEQLGYPAVDFKIEPVSAGGSA [r15_781_TrMRF] | 1.65 ± 0.043
10 | KKITIIIPSPDGYWVVIKIEWPNGRPINVFFRSPEELLNEIQRQLGMYPENFEITDIEVMPPDDLKEAMDNS [r1_119_TrROS] | 2.77 ± 0.1
11 | SSPLDPAGRFTIEVVFTTSADGTLTATFTITAPGGVPLKTLTRSFTNPSPGKAAAVEEAEALKAEIEAAASA [r9_739_JUSTAS] | 1.3 ± 0.025

Assay: folding stability dG unfold from chymotrypsin proteolysis; higher = more stable
How it was run: as §1

Row | Sequence | folding stability dG unfold [kcal/mol]
12 | SAGAAPVGARLVKVEPLPGDGPFVLVEVTPPDGKPGFILVPWEFFESGYLKNATAADIAKRFPFAKPASAGG [r19_74_TrMRF] | 1.85 ± 0.028
13 | SAGGMPEEELTLIVRIKVYNPETGEEKEITLTITVKSEEELEKAKKLVEELEEKLKELGIKKVEIEILSAGG [r13_360_TrROS_Hall] | 3.37 ± 0.097
14 | SASMGPEALVERIAEEIRKELGVDAGYKAPVEVRRPPDLVVVDAKLTVYKPDGNPLGEKTVRVVLPPLLSAG [r14_708_JUSTAS] | 0.0373 ± 0.22
15 | SAGGSAGGSMVRVTRLPDGTYRIEIELPGESLEREARGPEEVEALAEEIEKETGVPVEIETLESAGGSAGGS [r12_783_JUSTAS] | 0.908 ± 0.096
16 | SAGGSAGGSAGGGNMTITVMIPIEIPVFKYDGGKPEFEPFPIYIMVEVTVPEGAPLEEFSAGGSAGGSAGGS [r10_633_TrROS] | 1.49 ± 0.027
17 | SAGGSAGGSAGMKITIDGKVAEIEEVEVDGKLYYFIRVEGRLYVFDVETGEIREISPEDLSAGGSAGGSAGG [r11_9_TrROS_Hall] | 4.16 ± 0.033
18 | SAGGSAGGSAGMRIRAEVVEISPPGAVIVLRYEIEFPLPDDEPVRLEFDAVLYIPVPPEASAGGSAGGSAGG [r11_689_TrMRF] | 4.16 ± 0.098
19 | SAGGSAGGSAKIKPGEKVEITLKDGSKVIIEKKEDGKYLARIIDKKTNEVKTVPLDKIKLVSAGGSAGGSAG [r3_213_TrROS_Hall] | 1.08 ± 0.046
20 | SAGGSAMVVRITTKDGKKIEITVKSVEELLEALKELGVEEVKLEKLPDGKELKLTVTLKDGKIEILSAGGSA [r15_632_TrROS_Hall] | 2.8 ± 0.077
21 | SGPTSTVDPEFPGSTPGGTVTPSVVRVPVPPDEVERVIEEIRERAGVPGLKVERVERTADGVVLIEVSLPSA [r9_1101_JUSTAS] | 1.15 ± 0.015
22 | SAGGNIRIWFPGREIPIGGTVEDIKANIRKWLGRPIPEELIEQIDKGKTVSEIVDWLRKRGFPIRIWSAGGS [r16_601_TrROS] | 1.94 ± 0.16
23 | SAGGSAGGSAGKKIKVRIKVKDPETNEYYEIEIEAETEEEALEALKKLFPNVKKVEIVPASAGGSAGGSAGG [r11_25_TrROS_Hall] | 2.69 ± 0.11
24 | SAMVLDVSELTKKAIEELKKKNPKPLSPEEIVELGKKVAAEVAEKLGIPLKEIKVEPTGKHPKAVAELPSAG [r14_147_TrMRF] | 0.839 ± 0.059
25 | SAGMGLVGRTKDGKWIPAADLTEEQLKDMELDLGEPLPPVVVKVEVEWKLSPEDKLEVKLKVEVFVEGSAGG [r19_232_TrMRF] | 2.87 ± 0.07
26 | SAGVIPESLIEKVETEEYPGGITRSTYTYPDGVTVTVEETKVPGTDGITRKITVYPPTNTTTETTVTDPSAG [r5_802_JUSTAS] | 0.348 ± 0.16
27 | SAGGSAGGSAGKNMVEIEMMFVLPDGWFIKTSLRINPDKPGRIHEVEIEIRKIPPNDEQISAGGSAGGSAGG [r17_299_TrROS] | 4.31 ± 0.17
28 | SAGGSMSPEEKARKLAEELRKKLPPGAKVRIKVEVDGKTYEIEIEPGEEIEFPPGEKVKIVEIEVESAGGSA [r2_391_TrROS_Hall] | 2.82 ± 0.2
29 | SAGGIWIKVPDGGWVRIQIEHPGNGRPREETIPGGDIKDLIKSLSSSPDFPNYKVKIEVWDGGKPKPISAGG [r13_914_TrROS] | 1.71 ± 0.058
30 | SAPNYPFFVRIKLPGNGQEVEFPIESPEEADEMLDNFANHPHIKDIDIYRPDGEEVEIEIKIPPEALKQSAG [r14_747_TrROS] | 0.119 ± 0.16
31 | SAGGSAGLAEAILREAASAGIPLENVRIVDVRAFVTPDAVVFRARIEYRLPNSTSLAYADAVVPAPSAGGSA [r15_863_TrMRF] | 1.82 ± 0.086
32 | SMKVKTYTFKIKVDGKEIEVTVEELEDGELLVTIKIKENGKEKTIVVSREELEELLKALLPPGAEIEKVESA [r9_384_TrROS_Hall] | 3.49 ± 0.055

Reference: the supplement of paper PMC12764529
